Laboratory results as given in article PMC10022506 (Journal of Agricultural and Food Chemistry, 2023).

Tests used:
C=O = test: purified protein; conditions: apparent, 100 mM pyruvate, 1 mM Mg2+, 50 mM CHES pH 9.0, 45 °C
EcYfaU = molecular target: T1, EcYfaU (Escherichia coli, UniProt P76469); test: aldol condensation, HPLC; assay type: biochemical; conditions: co-substrate pyruvate; substrate inhibition at high concentration
T1 sequence (P76469 1-267): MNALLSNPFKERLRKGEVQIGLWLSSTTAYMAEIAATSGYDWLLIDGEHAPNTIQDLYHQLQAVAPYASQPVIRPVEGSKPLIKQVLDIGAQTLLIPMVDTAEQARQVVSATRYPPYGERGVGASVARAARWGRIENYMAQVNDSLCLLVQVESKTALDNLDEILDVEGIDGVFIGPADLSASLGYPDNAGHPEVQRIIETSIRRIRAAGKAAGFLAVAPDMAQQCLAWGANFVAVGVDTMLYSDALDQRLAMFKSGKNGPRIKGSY

Row | Molecule | Km (C=O) [mM] | kcat (C=O) [s⁻¹] | kcat/Km (C=O) [M⁻¹ s⁻¹] | aldol condensation, HPLC (EcYfaU)
1 | PaADL (Pseudomonas aeruginosa; V121A) | 35 ± 4.9 | 5.8 | 167 | 
2 | PaADL (Pseudomonas aeruginosa; L241A) | 65 ± 5.9 | 7.2 | 110 | 
3 | PaADL (Pseudomonas aeruginosa; L241A/V121A) | 35 ± 4.4 | 6.63 | 183 | 
4 | C=O [formaldehyde] |  |  |  | we measured the activity of EcYfaU at different substrate concentrations (Figure S7)
